Experimental data as given in US20180021430A1 (UNIVERSITAETSKLINIKUM FREIBURG, published 2018).
Blank lines part the entries; values can stand above or below the binder they belong to.

Key:
[1] = molecular target: T1, recombinant Mac-1 I-domain, human Mac-1 (alpha M) amino residues R115 to S340, soluble His-tag fusion protein (human, UniProt P11215 131-356); assay: solid phase binding assay, one-site binding hyperbola; I-domain on immobilized CD40L, BSA wells subtracted
T1 construct: range 115-340; ~28 kDa; also called alphaM I-domain; not shown: C-terminal His-tag from vector pET20b
Experimental: (§1) Solid phase binding assay. […] A mixture of equal molarities of all peptides served as the positive control in this assay.
(§2) The recombinant Mac-1 I-domain was immobilized in 96-well plates (Nunc) in PBS at 4° C. overnight. […] Binding was quantified by addition of TMB-substrate (Pierce), colorimetric reaction at 450 nm. […] Binding of the recombinant Mac-1 I-domain was quantified by addition of anti-His-Biotin monoclonal antibody (Qiagen), HRP-coupled streptavidin (Pierce) and colorimetric reaction at 450 nm. […] Kd was estimated using a one-site binding hyperbola nonlinear regression model with the Software Prism (Graphpad). […] A mixture of equal molarities of all peptides served as positive control. Absorbance on BSA-coated wells served as negative control and was subtracted.

[2] = molecular target: T2, recombinant CD40L, TNF homologous region of human CD40L (E108 to L261), produced as c-myc- and His-tag fusion … (human); assay: solid phase competition assay: M7 against binding of CD40L to the immobilized I-domain
T2 construct: also called sCD40L; His-tag-CD40L fusion protein
T2 chain: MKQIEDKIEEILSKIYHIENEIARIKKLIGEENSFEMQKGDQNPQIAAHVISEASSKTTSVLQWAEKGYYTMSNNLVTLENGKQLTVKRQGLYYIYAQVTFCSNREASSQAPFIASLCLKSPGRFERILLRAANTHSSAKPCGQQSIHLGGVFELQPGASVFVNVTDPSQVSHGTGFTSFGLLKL
Experimental: as §1, §2

T1 sequence (P11215 131-356): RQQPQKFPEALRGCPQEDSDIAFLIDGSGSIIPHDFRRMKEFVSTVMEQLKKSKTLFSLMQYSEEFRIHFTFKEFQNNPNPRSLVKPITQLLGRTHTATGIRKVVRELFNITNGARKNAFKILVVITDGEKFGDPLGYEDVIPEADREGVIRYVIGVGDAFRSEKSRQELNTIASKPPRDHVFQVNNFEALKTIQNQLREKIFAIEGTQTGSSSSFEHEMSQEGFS

Kd [1]: ~66 nM
B1: CD40L without a His-tag (Provitro) (ligand)
chain: MQKGDQNPQIAAHVISEASSKTTSVLQWAEKGYYTMSNNLVTLENGKQLTVKRQGLYYIYAQVTFCSNREASSQAPFIASLCLKSPGRFERILLRAANTHSSAKPCGQQSIHLGGVFELQPGASVFVNVTDPSQVSHGTGFTSFGLLKL
notes: Bought protein; also called CD40L (Provitro); immobilized CD40L

IC50 [2]: ~4000 nM
B2: peptide M7 (EQLKKSKTL) (peptide)
peptide: EQLKKSKTL
notes: linear fragment of the Mac-1 I-domain, E162-L170
